Test [1] concerns the target T1, human PD-L1-his tag protein (human, UniProt Q9NZQ7 19-238).
T1 construct: also called human PD-L1-His protein; recombinant PD-L1 protein; not shown: his tag
The experiment in a line: SPR (Biacore), affinity ranking, PDL1-His. On the technique in general: SPR reads the build-up and loss of mass on a sensor chip optically.

Test [2] deals with T2, human PD-L1-Fc protein (human, UniProt Q9NZQ7 19-238).
T2 construct: coating antigen of the ELISAs; also called rhPD-L1-Fc; not shown: Fc
T2 sequence (Q9NZQ7 19-238 limits assumed): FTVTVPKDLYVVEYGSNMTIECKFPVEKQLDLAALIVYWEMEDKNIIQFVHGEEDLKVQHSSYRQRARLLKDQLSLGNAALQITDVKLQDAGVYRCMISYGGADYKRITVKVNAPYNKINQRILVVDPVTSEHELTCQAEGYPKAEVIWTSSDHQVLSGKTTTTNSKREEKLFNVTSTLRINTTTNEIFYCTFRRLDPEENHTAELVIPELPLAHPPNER
The experiment in a line: ELISA, antibody titrated on coated human PD-L1-Fc, OD 450nm; upper right panel. As for the experimental part:
(§1) To evaluate antigen binding activity, the humanized antibodies were subjected to ELISA test. Briefly, microtiter plates were coated with human PD-L1-Fc protein at 0.5 μg/ml in PBS, 100 μl/well at 4° C. overnight, then blocked with 200 μl/well of 1% BSA. Three-fold dilutions of humanized antibodies starting from 10 μg/ml were added to each well and incubated for 1 hour at 37° C. The plates were washed with PBS/Tween and then incubated with mouse-anti-human IgG Fab antibody conjugated with Horse Radish Peroxidase (HRP) for 1 hour at 37° C. After washing, the plates were developed with TMB substrate and analyzed by spectrophotometer at OD 450 nm.
A general note: ELISA stands for enzyme-linked immunosorbent assay.

Test [3] addresses T2, human PD-L1-Fc protein. Nature of the test: ELISA, antibody titrated on coated human PD-L1-Fc, OD 450nm; lower left panel; the table row is headed 'IC50' on the sheet although the curves rise. Here is the method: as §1
Test [4] has as its target T2, human PD-L1-Fc protein. The experiment in a line: ELISA, antibody titrated on coated human PD-L1-Fc, OD 450nm; upper left panel. As for the experimental part:
as §1

Broadly, the Kd is the equilibrium constant for the complex coming apart. By koff is commonly meant the first-order rate constant of dissociation. By kon is commonly meant a measure of how fast the partners come together. The term EC50 denotes the concentration that produces a half-maximal response.

Where a chain is given by its changes, count along the chain named.

T1 sequence (Q9NZQ7 19-238 limits assumed): as above

B1: Hu67F3G7-8 (antibody, V domains shown)
VH: EVQLVQSGAEVKKPGASVKVSCKASGYIFTDFWVSWVRQAPGQGLEWIGEIYPNSGVSRYNEKFKGRVTMTVDKSISTAYMELSRLRSDDTAVYYCTKYFGYTYWFGYWGQGTLVTVSS
VL: DTVLTQSPSSLSASVGDRVTITCRASKSVSTYMHWYQQKPGKAPKLLIYSASHLESGVPSRFSGSGSGTDFTLTISSLQPEDFATYYCQQSNELPVTFGGGTKVEIK
notes: humanized
Turning to B1, in test [1], the affinity, expressed as Kd, was 0.0356 nM; the koff worked out at 9.84e-05 s⁻¹; the on-rate (kon) amounted to 2.76e+06 M⁻¹ s⁻¹. Besides, a half-maximal effect with human PD-L1-Fc protein [2] (EC50) was put at 12.5 ng/mL.

B2: Hu67F3G7-18 (antibody, V domains shown)
VH: B1 VH
VL: DTVLTQSPSLSASVGDRVTITCRASKSVSTYMHWYQQKPGKQPKLLIYSASHLESGVPSRFSGSGSGTDFTLTISSLQPEDFATYYCQQSNELPVTFGGGTKVEIK
notes: humanized
B2: in test [1], the equilibrium dissociation constant (Kd) came to 0.0331 nM, the koff is 9.51e-05 s⁻¹ and the association rate constant (kon) came to 2.88e+06 M⁻¹ s⁻¹. Also, the EC50 with human PD-L1-Fc protein [3] amounted to 14 ng/mL.

B3: Hu67F3G7-16 (antibody, V domains shown)
VH: B1 VH with I28T, I48M, T97A, K98R
VL: B2 VL
notes: humanized
In test [1], B3 displayed a Kd of 0.0754 nM, an off-rate constant (koff) of 0.000111 s⁻¹ and a kon of 1.48e+06 M⁻¹ s⁻¹. For the same molecule, the response with human PD-L1-Fc protein [3] was half-maximal at 11.4 ng/mL (EC50).

B4: Hu67F3G7-9 (antibody, V domains shown)
VH: B1 VH with T97A, K98R
VL: B1 VL
notes: humanized
In test [1], B4 displayed a Kd of 0.0454 nM, a koff of 0.0001 s⁻¹ and an on-rate (kon) of 2.21e+06 M⁻¹ s⁻¹. Also, the EC50 with human PD-L1-Fc protein [2] amounted to 8.45 ng/mL.

B5: Hu67F3G7-4 (antibody, V domains shown)
VH: B1 VH with T97A, K98R
VL: B1 VL with T2I, V3Q, L4M
notes: humanized
Consider B5, for which, in test [1], the Kd came out at 0.0548 nM, the koff stood at 0.000103 s⁻¹ and the kon was 1.88e+06 M⁻¹ s⁻¹. Further, the EC50 with human PD-L1-Fc protein [4] is 10.6 ng/mL.

B6: Hu67F3G7-10 (antibody, V domains shown)
VH: B1 VH with Q43K
VL: B1 VL
notes: humanized
In test [1], B6 displayed a Kd of 0.0392 nM, an off-rate constant (koff) of 9.34e-05 s⁻¹ and a kon of 2.38e+06 M⁻¹ s⁻¹. Besides, in the test with human PD-L1-Fc protein [2], the EC50 is 10.1 ng/mL.

B7: Hu67F3G7-14 (antibody, V domains shown)
VH: B1 VH with T97A, K98R
VL: B1 VL with A43Q
notes: humanized
In test [1], B7 had an equilibrium dissociation constant (Kd) of 0.0519 nM, a koff of 0.000109 s⁻¹ and a kon of 2.09e+06 M⁻¹ s⁻¹. In the test with human PD-L1-Fc protein [3], this molecule had a concentration for a half-maximal effect (EC50) of 14.4 ng/mL.

B8: Hu67F3G7-12 (antibody, V domains shown)
VH: B1 VH with I28T, I48M
VL: B1 VL with A43Q
notes: humanized
In test [1], B8 gave a Kd of 0.0351 nM, an off-rate constant (koff) of 9.01e-05 s⁻¹ and a kon of 2.56e+06 M⁻¹ s⁻¹. The same molecule showed an EC50 with human PD-L1-Fc protein [2] of 9.53 ng/mL.

B9: Hu67F3G7-13 (antibody, V domains shown)
VH: B1 VH
VL: B1 VL with A43Q
notes: humanized
In test [1], B9 displayed an equilibrium dissociation constant (Kd) of 0.0341 nM, a koff of 9.54e-05 s⁻¹ and a kon of 2.8e+06 M⁻¹ s⁻¹. This molecule also had an EC50 with human PD-L1-Fc protein [3] of 10.2 ng/mL.

B10: Hu67F3G7-15 (antibody, V domains shown)
VH: B1 VH with Q43K
VL: B1 VL with A43Q
notes: humanized
On to B10, for which, in test [1], the equilibrium dissociation constant (Kd) amounted to 0.0371 nM, the koff worked out at 9.69e-05 s⁻¹ and the association rate constant (kon) is 2.61e+06 M⁻¹ s⁻¹. In the test with human PD-L1-Fc protein [3], this molecule yielded a concentration giving a half-maximal response (EC50) of 11.1 ng/mL.

B11: Hu67F3G7-17 (antibody, V domains shown)
VH: B1 VH with I28T, I48M
VL: B2 VL
notes: humanized
In test [1], B11 had a dissociation constant Kd of 0.037 nM, a koff of 0.000101 s⁻¹ and a kon of 2.74e+06 M⁻¹ s⁻¹. The same molecule had an EC50 in the test with human PD-L1-Fc protein [3] of 13.6 ng/mL.

B12: Hu67F3G7-6 (antibody, V domains shown)
VH: B1 VH with I28T, I48M, T97A, K98R
VL: B1 VL
notes: humanized
On to B12, for which, in test [1], the Kd came out at 0.0587 nM, the koff was found to be 0.000118 s⁻¹ and the on-rate (kon) came out at 2.01e+06 M⁻¹ s⁻¹. This molecule also gave an EC50 with human PD-L1-Fc protein [4] of 11.8 ng/mL.

B13: Hu67F3G7-1 (antibody, V domains shown)
VH: B1 VH with I28T, I48M, T97A, K98R
VL: B1 VL with T2I, V3Q, L4M
notes: humanized
On to B13, for which, in test [1], binding was put at a Kd of 0.0655 nM, the off-rate constant (koff) stood at 0.000121 s⁻¹ and the kon was found to be 1.86e+06 M⁻¹ s⁻¹. In the test with human PD-L1-Fc protein [4], this molecule gave an EC50 of 12.5 ng/mL.

B14: Hu67F3G7-11 (antibody, V domains shown)
VH: B1 VH with I28T, I48M, T97A, K98R
VL: B1 VL with A43Q
notes: humanized
In test [1], B14 came in with a Kd of 0.0321 nM, a koff of 0.000164 s⁻¹ and an on-rate (kon) of 5.11e+06 M⁻¹ s⁻¹. This molecule came in with a concentration for a half-maximal effect (EC50) with human PD-L1-Fc protein [2] of 8.25 ng/mL.

B15: Hu89C10H8-1 (antibody, V domains shown)
VH: EVQLVESGGGLVKPGGSLRLSCAASGFTFSNYWMTWVRQAPGKGLEWVASITNTGSSTFYPDSVKGRFTISRDNAKNSLYLQMNSLRAEDTAVYYCARDTTIAPFDYWGQGTMVTVSS
VL: DIQMTQSPSSLSASVGDRVTITCKASQNLNEYLNWYQQKPGKAPKRLIYKTNTLQAGVPSRFSGSGSGTDYTLTISSLQPEDFATYYCSQYNSGNTFGQGTKLEIK
notes: humanized
Regarding B15, in test [1], binding was put at a Kd of 0.617 nM, the off-rate (koff) was found to be 0.000465 s⁻¹ and the kon stood at 754000 M⁻¹ s⁻¹. Moreover, the midpoint of the response with human PD-L1-Fc protein [4], the EC50, lay at 6.22 ng/mL.

B16: Hu89C10H8-6 (antibody, V domains shown)
VH: B15 VH with A97T
VL: B15 VL with V58I
notes: humanized
In the case of B16, in test [1], the Kd is 0.122 nM, the dissociation rate constant (koff) was found to be 8.56e-05 s⁻¹ and the on-rate (kon) was 701000 M⁻¹ s⁻¹. Also, the EC50 with human PD-L1-Fc protein [4] came to 6.51 ng/mL.

B17: Hu89C10H8-9 (antibody, V domains shown)
VH: B15 VH
VL: B15 VL with V58I, T69I
notes: humanized
Consider B17, for which, in test [1], the affinity, expressed as Kd, was 0.713 nM; the koff is 0.000478 s⁻¹; the kon was found to be 671000 M⁻¹ s⁻¹. The molecule further had an EC50 with human PD-L1-Fc protein [2] of 8.42 ng/mL.

B18: Hu89C10H8-3 (antibody, V domains shown)
VH: B15 VH with V37I, A97T
VL: B15 VL
notes: humanized
Turning to B18, in test [1], binding was put at a Kd of 0.0785 nM, the off-rate (koff) turned out to be 5.79e-05 s⁻¹ and the kon came to 738000 M⁻¹ s⁻¹. In the test with human PD-L1-Fc protein [4], this molecule gave an EC50 of 6.66 ng/mL.

B19: Hu89C10H8-2 (antibody, V domains shown)
VH: B15 VH with A97T
VL: B15 VL
notes: humanized
In test [1], B19 gave a dissociation constant Kd of 0.133 nM, an off-rate constant (koff) of 8.51e-05 s⁻¹ and an association rate constant (kon) of 641000 M⁻¹ s⁻¹. The molecule further came in with a half-maximal effective concentration (EC50) with human PD-L1-Fc protein [4] of 7.28 ng/mL.

B20: Hu89C10H8-10 (antibody, V domains shown)
VH: B15 VH with A97T
VL: B15 VL with V58I, T69I
notes: humanized
In test [1], B20 had a Kd of 0.151 nM, a koff of 8.99e-05 s⁻¹ and a kon of 595000 M⁻¹ s⁻¹. This molecule also displayed an EC50 with human PD-L1-Fc protein [2] of 7.82 ng/mL.

B21: Hu89C10H8-5 (antibody, V domains shown)
VH: B15 VH
VL: B15 VL with V58I
notes: humanized
In test [1], B21 showed a Kd of 0.736 nM, an off-rate (koff) of 0.000494 s⁻¹ and an association rate constant (kon) of 671000 M⁻¹ s⁻¹. This molecule also came in with an EC50 with human PD-L1-Fc protein [4] of 6.37 ng/mL.

B22: Hu89C10H8-8 (antibody, V domains shown)
VH: B15 VH with V37I, N77S, A97T
VL: B15 VL with V58I
notes: humanized
In test [1], B22 registered a dissociation constant Kd of 0.102 nM, an off-rate constant (koff) of 6.66e-05 s⁻¹ and a kon of 655000 M⁻¹ s⁻¹. In addition, a half-maximal effect with human PD-L1-Fc protein [2] (EC50) was put at 7.41 ng/mL.
